Reference: US20240199727A1 (INVETX, published 2024)

Experiments:
[1] = molecular target: canine NGF tagged at the C-terminus with the Flag tag (canine); assay: SPR, Biacore T200; antibody captured on anti-feline CM5 chip, NGF analyte, 1:1 fit
[2] = molecular target: T1, canine NGF tagged at the C-terminus with the Flag tag (canine, UniProt A0A8I3PYI3 122-241); assay: SPR Biacore T200; antibody captured on protein A chip, NGF analyte
T1 construct: Baculovirus expression
T1 sequence (A0A8I3PYI3 entry or part of it): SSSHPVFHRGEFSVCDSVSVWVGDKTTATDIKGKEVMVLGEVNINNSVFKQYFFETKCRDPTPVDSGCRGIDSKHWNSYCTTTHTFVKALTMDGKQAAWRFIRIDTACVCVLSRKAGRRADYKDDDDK
Experimental: The running buffer was HBS-EP buffer (10 mM HEPES, pH 7.4, 150 mM NaCl, 3 mM EDTA, 0.005% tween 20) and the instrument temperature was set at 25 °C. […] The binding signals were corrected for the blank and the resulting sensorgram (FIG. 5) was used to determine the rate constants (kₐ and kd) and binding affinity (KD) using a one-to-one binding model with the BIAEVAL software.

[3] = molecular target: T2, canine NGF tagged at the C-terminus with the Flag tag (canine, UniProt A0A8I3PYI3 122-241); assay: SPR competition; Ab pre-incubated with 50 nM NGF at Ab to NGF ratio 1 to 1, injected over captured feline p75 (competitor)
T2 construct: mature; also called feline NGF (processed form identical)
T2 sequence (A0A8I3PYI3 entry or part of it): as above

[4] = molecular target: T2, canine NGF tagged at the C-terminus …; assay: SPR competition; Ab pre-incubated with 50 nM NGF at Ab to NGF ratio 5 to 1, injected over captured feline p75 (competitor)
[5] = molecular target: T2, canine NGF tagged at the C-terminus …; assay: SPR competition; Ab pre-incubated with 10 nM NGF at Ab to NGF ratio 10 to 1, injected over captured feline TrkA (competitor)
[6] = molecular target: T2, canine NGF tagged at the C-terminus …; assay: SPR competition; Ab pre-incubated with 10 nM NGF at Ab to NGF ratio 50 to 1, injected over captured feline TrkA (competitor)

Sequence of canine NGF tagged at the C-terminus with the Flag tag (canine) (chain, as listed by the source): as the sequence (A0A8I3PYI3 entry or part of it) above

Binder | Kd [1] [nM] | koff [1] [s⁻¹] | kon [1] [M⁻¹ s⁻¹] | koff [2] [s⁻¹] | % Block [3] [%] | % Block [4] [%] | % Block [5] [%] | % Block [6] [%]
SC-184_76 (antibody, from a related filing, V domains shown) VH: DVQLVESGGDLVKPGGSLRLTCVASGLSLTSDSMSWVRQAPGKGLQWVSTLWSNGGTYYTDSVKGRFTISKDNAENTLYLQMNNLKTEDTATYYCASIYYYEADYLHWYFDFWGQGALVTVSS VL: EIQMTQSPTSLSASVGDRVTITCRASEGIANNLSWYQQTPGKAPKLLIYATSNLHSGVPSRFSGSGSGTDFTLTISSLQPEDFATYYCQQGFKWPLTFGGGTKLEIT | 0.472 | 0.000396 | 838000 |  |  |  |  | 
SC-184_110 (antibody, from a related filing, IgG1a, V domains shown) VH: DVQLVESGGDLVKPGGSLRLTCVASGLSLTSASMSWVRQAPGKGLQWVSTIYSNGGTYYTDSVKGRFTISKDNAENTLYLQMNNLKTEDTATYYCASIYYYEAEYLHWYFDFWGQGALVTVSS VL: EIQMTQSPTSLSASVGDRVTITCRASEGISKNLSWYQQTPGKAPKLLIYATDNLHSGVPSRFSGSGSGTDFTLTISSLQPEDFATYYCQQGWKWPLTFGGGTKLEIT | 0.773 | 0.00038 | 492000 |  |  |  |  | 
canine 2166 chimeric antibody (antibody, V domains shown, also called canine chimeric antibody) VH: QVQLKESGPGLVQPSQTLSLTCTVSGLSLTSNSVSWIRQPPGKGLEWMGVIWSNGGTDYNSAIESRLSINRDTSKSQVFLKMNSLQPEDTAMYFCASIYYYDADYLHWYFDFWGPGTMVTVSS VL: DIQMTQSPASLSASLGETVSIECLASEGISNSLAWYQLKPGKSPQFLIYATSSLQDGVPSRFSGSGSGTQYSLKISGMQPEDEGVYYCQQGYKFPLTFGSGTKLKIKR |  |  |  | 3.5e-06 |  |  |  | 
felinized clone 101 (antibody, V domains shown) VH: DVQLVESGGDLVKPGGSLRLTCVASGLSLTSSSMSWVRQAPGKGLQWVSTIYSNGGTYYTDSVKGRFTISKDNAENTLYLQMNNLKTEDTATYYCASIYYYDADYLHWYFDFWGQGALVTVSS VL: EIQMTQSPTSLSASVGDRVTITCRASEGISNNLSWYQQTPGKAPKLLIYATSNLHSGVPSRFSGSGSGTDFTLTISSLQPEDFATYYCQQGYKWPLTFGGGTKLEIT |  |  |  |  | 42 | 87 | 15 | 76
AHF17602 (antibody, V domains shown) VH: DVQLVESGGDLVKPGGSLRLTCVASGLSLTSSSMVWVRQAPGKGLQWVSTIYSNRGTYYTDSVKGRFTISKDNAENTLYLQMNNLKTEDTATYYCASIYYYDADYLHWYFDFWGQGALVTVSS VL: EIQMTQSPTSLSASVGDRVTITCRASEGIANNLSWYQQTPGKAPKLLIYATSNLHSGVPSRFSGSGSGTDFTLTISSLQPEDFATYYCQQGYKWPLTFGGGTKLEIT |  |  |  |  | 100 | 100 | 99 | 100
SC-184_76-Arg (antibody, V domains shown) VH: DVQLVESGGDLVKPGGSLRLTCVASGLSLTSDSMSWVRQAPGKGLQWVSTLWSNRGTYYTDSVKGRFTISKDNAENTLYLQMNNLKTEDTATYYCASIYYYEADYLHWYFDFWGQGALVTVSS VL: EIQMTQSPTSLSASVGDRVTITCRASEGIANNLSWYQQTPGKAPKLLIYATSNLHSGVPSRFSGSGSGTDFTLTISSLQPEDFATYYCQQGFKWPLTFGGGTKLEIT |  |  |  |  | 100 | 100 | 99 | 100
SC-184_110-Arg (antibody, V domains shown) VH: DVQLVESGGDLVKPGGSLRLTCVASGLSLTSASMSWVRQAPGKGLQWVSTIYSNRGTYYTDSVKGRFTISKDNAENTLYLQMNNLKTEDTATYYCASIYYYEAEYLHWYFDFWGQGALVTVSS VL: EIQMTQSPTSLSASVGDRVTITCRASEGISKNLSWYQQTPGKAPKLLIYATDNLHSGVPSRFSGSGSGTDFTLTISSLQPEDFATYYCQQGWKWPLTFGGGTKLEIT |  |  |  |  | 100 | 100 | 100 | 100
